According to patent US20050154189A1 (MAXYGEN, published 2005):
Substitutions are numbered along the chain they refer to.

Molecular target: T1, Soluble CTLA-4-Ig (human, UniProt P16410 36-161, FITC-conjugated in the two-colour FACS assays; unlabelled and detected with FITC goat anti-human IgG in the concentration-dependent assay)
T1 construct: extracellular domain; Bought from R&D Systems; also called sCTLA-4-Ig; CTLA-4-Ig Fc; not shown: Fc portion of human IgG1
Assay: two-colour FACS profile on transfected cells; score of preference for CTLA-4-Ig over CD28-Ig vs WT hB7-1

T1 sequence (P16410 36-161): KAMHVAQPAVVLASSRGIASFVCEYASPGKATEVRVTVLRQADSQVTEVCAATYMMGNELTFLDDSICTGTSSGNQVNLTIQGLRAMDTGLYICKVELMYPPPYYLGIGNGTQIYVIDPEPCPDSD

B1: Round 2 CTLA4 A-B11-5 (ligand)
chain: ITPKSATKRVKETVMLSCDYSTSTEELTSLRIYWQKDSKMVLAILPGKVQVWPEYKNRTITDMNDNPRIVILALRLSDSGTYTCVIQKPDLKGAYKLEHLTSVRLMIRADFPVPTINDLGNPSPNIRRLICSTSGGFPRPHLYWLENGEELNATNTTLSQDPETKLYMISSELDFNMTSNHSFLCLVKYGDLTVSQTFYWQESKPTPSANQHLTWTIIIPVSAFGISVIIAVILTCLTCRNAAIRRQRRENEVEMQSCSQSP
With B1 the “Binding Score” value was 1.

B2: Round 2 CTLA4 A-G8-1 (ligand)
chain: B1 chain with A6V, S21N, R75P
For B2, the “Binding Score” value was 1.

B3: Round 2 CTLA4 A-F6-9 (ligand)
chain: B1 chain with A6V
In the case of B3, the “Binding Score” value is reported as 1.

B4: Round 1 CTLA4BP-5 (ligand)
chain: VIHVTKEVKEVATLSCGHNVSVEELAQTRIHWQKEKKMVLTMMSGDMNIWPEYKNRTIFDITNNLSIVILALRPSDEGTYECVVLKYEKDAFKREHLAEVTLSVKADFPTPSISDFEIPPSNIRRIICSTSGGFPEPHLSWLENGEELNAINTTVSQDPGTELYTVSSKLDFNMTTNHSFMCLIKYGHLRVNQTFNWNTPKQEHFPDNLLPSWAITLISVNGIFVICCLTYCFAPRCRERRRNERLRRESVRPV
notes: also called R1-5; R1 CTLA-4BP-5
With B4 the “Binding Score” value was 2.

B5: Round 2 CTLA4BP 5x2-e12 (ligand)
chain: B4 chain with D46G, P120T, N152S, T165A, H178R, M181V, P200T
B5 was tested, and the “Binding Score” value was 0.

B6: Round 2 CTLA4BP 2x1-c4 (ligand)
chain: B4 chain with S15P, T101M, S114T, S140F, T165A, S179N
In the case of B6, the “Binding Score” value is reported as 1.

B7: Round 2 CTLA4BP 2x2-f12 (ligand)
chain: B4 chain with E81G, K86E, T101M, G160E, T165A, V191A
With B7 the “Binding Score” value was 1.

B8: Round 2 CTLA4BP 5x1-f1 (ligand)
chain: B4 chain with H18L, H31Y, Y53H, S114T, S140F, V155A, G160E, T176A, M181V, R245T
B8 was tested, and the “Binding Score” value was 1.

B9: Round 2 CTLA4BP 2x1-b12 (ligand)
chain: VIHMTKEVKEVATLSCGHNVSVEELAQTRIYWQKEKKMVLTMMSGDMNIWPEYKNRTIFDITNNLSIVILALRPSDEGTYECVALKYEKDAFKQEHLAEVTLSVKADFPTPSISDFEIPPSNIRRIICSTSGGFPEPRLAWMEDGEELNAINTTVSQDPETELYTVSSKLDFNMTANHSFMCLIKYGHLRVNQTFNWNTPKQEHFPDNLLPSWAITLISVNGIFVICCLTYCFAPRCRERRRNERLRRESVCPV
In the case of B9, the “Binding Score” value is reported as 1.

B10: Round 2 CTLA4BP 5x2-b7 (ligand)
chain: B4 chain with S114T, T176A, M181V, V220A
With B10 the “Binding Score” value was 1.

B11: Round 2 CTLA4BP 2x1-h12 (ligand)
chain: B4 chain with H18L, T101M, S114T, V220A, R241K, R242S, R252C
With B11 the “Binding Score” value was 1.

B12: Round 2 CTLA4BP 5x1-d7 (ligand)
chain: VIHVTKEVKEVATLSCGHNVPVEELAQTRIYWQKEKKMVLTMMSGDMNIWPEYKNRTIFDITNNLSIVILALRPSDEGTYGCVVLEYEKDAFKREHLAEVMLSVKADFPTPSITDLEIPPSNIRRIICSTSGGFPEPHLFWLENGEELNAINTTASQDPETELYAVSSKLDFNMTTNHSFMCLIKYGHLRVNQTFNWNTPKQEHFPDNLLPSWAITLISANGIFVICCLTYCFAPRCRERRRNERLRRESVHPV
B12 was tested, and the “Binding Score” value was 1.

B13: Round 1 CTLA4BP-27 (ligand)
chain: B4 chain with H18L, H31Y, T101M, G160E, T176A, M181V, R245T
notes: also called R1-27; R1 CTLA-4BP-27
In the case of B13, the “Binding Score” value is reported as 1.

B14: Round 2 CTLA4BP 5x2-h11 (ligand)
chain: VIHVTKKVKEVATLSCGHNVSVEELAQTRIYWQKGKKMVLTMMSGDMNIWPECKNRTIFDITNNLSIVILALRPSDEGTYECAVLKYEKDAFKREHLAEVTLSVKADFPTPSISDFEIPTSNIRRIICSTSGGFPEPHLFWLENGEELNAINTTASQDPETELYAVSSKLDFNMTTNHSFMCLIKYGHLRVNQTFNWNTPKQEHFPDNLLPSWAITLISVNGIFVICCLTYCFAPRCRERKSNERLRRESVRPV
B14 was tested, and the “Binding Score” value was 1.

B15: Round 2 CTLA4BP 5x2-f3 (ligand)
chain: VIHVTKEVKEVATLSCGHNVSVEELAQTRIYWQKEKKMVLTMMPGDMNIWPEYKNRTIFDITNNLSIVILALRPSDEGTYECVVLRYEKDAFKREHLAEVTLSVKADFPTPSISDFEIPTSNIRRIICSTSGGFPEPHLSWLENGEELNAINTTASQDPETELYTVSSKLDFNMTTNRSFVCLIKYGHLRVNQTFNWNTPKQEHFPDNLLPSWAITLISANGIFVICCLTHCFAPRCRERKSNERLRRESVRPV
For B15, the “Binding Score” value was 0.

B16: Round 2 CTLA4BP 2x4-h11 (ligand)
chain: B4 chain with H31Y, K86E, T101M, T165A, T230A, E239G
For B16, the “Binding Score” value was 0.

B17: Round 2 CTLA4BP 5x2-d7 (ligand)
chain: B4 chain with V4M, H18L, T101M, G160E, E162G
For B17, the “Binding Score” value was 1.

B18: Round 2 CTLA4BP 5x3-c4 (ligand)
chain: B9 chain with M4V, A84V, Q94R, V155A, A176T, H178R, M181V, L210F, C252R
With B18 the “Binding Score” value was 1.

B19: Round 2 CTLA4BP 2x1-f10 (ligand)
chain: B4 chain with T101M, S114T, H138R, S140A, L142M, N144D, T165A, F224S, R252C
With B19 the “Binding Score” value was 1.

B20: Round 2 CTLA4BP 5x3-c3 (ligand)
chain: B4 chain with V4M, H18P, H31Y, P120T, Y231H, R252C
In the case of B20, the “Binding Score” value is reported as 1.

B21: Round 2 CTLA4BP 2x2-f1 (ligand)
chain: B4 chain with P74L, P120T, S140F, V155A, G160E, H178R, M181V
In the case of B21, the “Binding Score” value is reported as 1.

B22: Round 2 CTLA4BP 2x1-g8 (ligand)
chain: B4 chain with I67V, S114T, H178R, M181V, R241K, R242S
B22 was tested, and the “Binding Score” value was 1.

B23: Round 1 CTLA4BP-11 (ligand)
chain: B12 chain with V4M, P21S, G81E, E86K, L116F, A155V, P200T, A220V, Y231H
notes: also called R1-11; R1 CTLA-4BP-11
For B23, the “Binding Score” value was 1.

B24: Round 1 CTLA4BP-13 (ligand)
chain: B15 chain with P44S, R86K, S140F, W141G, L148I, T176P, H231Y
notes: also called R1-13; R1 CTLA-4BP-13
For B24, the “Binding Score” value was 1.
